Source: patent US20240269278A1 (NANJING SHUNXIN PHARMACEUTICALS CO LTD OF CHIATAI TIANQING …, published 2024)
Positions count from the first letter of the chain named. Names and notes keep the numbering of the source.

B1: Xi14A9 (antibody, human IgG4 S228P, kappa, V domains shown)
VH: EVQLQQSGAEVARPGASVKLSCTVSGFNIEDDYIEWVKQRPEQGLEWIGRIDPANDKTKYAPKFQDKATITGDTSSNTAYLQLSSLTSEDTAVYYCTRPGLRRYYSMDYWGQGTSVTVSS
VL: NIVLTQSPKSMSMSVGERVTLSCKASENVVSYVSWYQQKPEQSPKLLIYGASNRYTGVPDRFIGSGSSTDFTLIISSFQPEDLADYHCGQSYSYPLTFGAGTKLELKR
notes: Chimeric: mouse VH on human IgG4 (S228P, EU) constant region, mouse VL on human kappa constant region; made in CHO cells; also called chimeric version of 14A9
B2: Xi2H8 (antibody, human IgG4 S228P, kappa, V domains shown)
VH: QVQLKESGPGLVAPSQSLSITCTVSGFSLTNYGVHWVRQPPGKGLEWLGIIWAGGSTNYNSALMSRLSISKDNSKSQVFLKMNSLQTDDTAMYYCARDDYASMDYWGQGTSVTVSS
VL: DAFMTQTPLSLPVSLGDQASISCRSSQSLVHSNGNTYLHWYLQKPGQSPKLLIYKVSNRFSGVPDRFSGSGSGTDFTLKISRVEAEDLGVYFCSQSTHVPYTLGGGTKLEIKR
notes: Chimeric: mouse VH on human IgG4 (S228P, EU) constant region, mouse VL on human kappa constant region; made in CHO cells; also called chimeric version of 2H8
B3: Xi16E5 (antibody, human IgG4 S228P, kappa, V domains shown)
VH: EVQLQQSGPELKKPGETVKISCKASGYTFTNYGMNWVKQVPGKGLKWMGWINTNTGEPTYAEEFKGRFAFSLETSARTAFLQINNLKNEDTATYFCTRFSHLRGPMDYWGQGASVTVSS
VL: B2 VL with F3V, N35Y, V83L, Y101P, L103F
notes: Chimeric: mouse VH on human IgG4 (S228P, EU) constant region, mouse VL on human kappa constant region; made in CHO cells; also called chimeric version of 16E5
B4: Xi2B2 (antibody, human IgG4 S228P, kappa, V domains shown)
VH: EVMLVESGGGLVQPGGSLKLSCAASGFTFSNYYMSWVRQTPEKRLEWVAYISSGGGSTYYPDSVKGRFTISRDNAKNTLYLQMSSLKSEDTAMYYCAWFAYWGQGTLVTVSA
VL: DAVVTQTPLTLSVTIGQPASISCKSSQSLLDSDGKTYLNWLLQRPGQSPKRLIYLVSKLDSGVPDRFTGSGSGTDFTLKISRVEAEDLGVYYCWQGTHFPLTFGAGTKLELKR
notes: Chimeric: mouse VH on human IgG4 (S228P, EU) constant region, mouse VL on human kappa constant region; made in CHO cells; also called chimeric version of 2B2
B5: hz16E5-1.2 (antibody, human IgG4 S228P, kappa)
heavy: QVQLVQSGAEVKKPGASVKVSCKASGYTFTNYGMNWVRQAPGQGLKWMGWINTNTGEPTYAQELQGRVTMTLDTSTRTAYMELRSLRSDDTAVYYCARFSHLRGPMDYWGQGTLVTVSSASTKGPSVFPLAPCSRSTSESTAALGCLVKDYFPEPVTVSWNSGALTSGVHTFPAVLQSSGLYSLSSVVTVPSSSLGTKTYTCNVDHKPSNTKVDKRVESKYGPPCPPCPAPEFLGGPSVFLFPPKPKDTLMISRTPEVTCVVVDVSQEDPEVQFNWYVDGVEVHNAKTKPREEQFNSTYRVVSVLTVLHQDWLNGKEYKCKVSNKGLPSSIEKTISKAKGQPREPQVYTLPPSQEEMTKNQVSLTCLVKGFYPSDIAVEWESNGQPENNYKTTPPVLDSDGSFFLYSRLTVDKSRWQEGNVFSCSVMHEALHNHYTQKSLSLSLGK
light: DIQMTQSPSSLSASVGDRVTITCRSSQSLVHSNGYTYLHWYQQKPGKAPKLLIYKVSNRFSGVPSRFSGSGSGTDFTLTISSLQPEDFATYYCSQSTHVPPTFGQGTKLEIKRTVAAPSVFIFPPSDEQLKSGTASVVCLLNNFYPREAKVQWKVDNALQSGNSQESVTEQDSKDSTYSLSSTLTLSKADYEKHKVYACEVTHQGLSSPVTKSFNRGEC
notes: Humanized 16E5, full-length heavy and light chains, made in CHO cells
B6: hz16E5-3.1 (antibody, human IgG4 S228P, kappa)
heavy: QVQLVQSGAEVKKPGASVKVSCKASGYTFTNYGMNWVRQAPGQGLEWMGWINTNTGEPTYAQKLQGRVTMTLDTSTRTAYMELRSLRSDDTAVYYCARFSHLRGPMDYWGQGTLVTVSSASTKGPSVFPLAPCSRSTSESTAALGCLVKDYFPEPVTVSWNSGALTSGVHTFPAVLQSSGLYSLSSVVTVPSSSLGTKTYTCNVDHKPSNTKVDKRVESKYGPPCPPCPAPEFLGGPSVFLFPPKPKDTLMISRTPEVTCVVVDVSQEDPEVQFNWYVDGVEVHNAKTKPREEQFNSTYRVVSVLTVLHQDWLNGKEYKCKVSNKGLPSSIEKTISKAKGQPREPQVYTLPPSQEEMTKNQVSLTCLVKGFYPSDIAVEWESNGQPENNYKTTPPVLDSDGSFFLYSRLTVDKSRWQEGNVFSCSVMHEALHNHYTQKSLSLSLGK
light: B5 light with I2A
notes: as for B5
B7: hz16E5-3.2 (antibody, human IgG4 S228P, kappa)
heavy: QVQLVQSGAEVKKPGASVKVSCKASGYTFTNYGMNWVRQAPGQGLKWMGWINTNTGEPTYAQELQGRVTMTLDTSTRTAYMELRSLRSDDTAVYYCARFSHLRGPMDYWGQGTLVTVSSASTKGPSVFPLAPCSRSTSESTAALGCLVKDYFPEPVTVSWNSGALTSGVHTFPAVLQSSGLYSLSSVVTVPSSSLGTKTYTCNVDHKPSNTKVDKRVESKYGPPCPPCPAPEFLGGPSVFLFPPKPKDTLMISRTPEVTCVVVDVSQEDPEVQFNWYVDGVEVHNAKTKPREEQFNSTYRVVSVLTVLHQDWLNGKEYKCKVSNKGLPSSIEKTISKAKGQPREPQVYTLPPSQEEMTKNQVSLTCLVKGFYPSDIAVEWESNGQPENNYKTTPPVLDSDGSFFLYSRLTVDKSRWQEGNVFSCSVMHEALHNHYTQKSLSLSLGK
light: B5 light with I2A
notes: as for B5
B8: hz16E5-1.1 (antibody, human IgG4 S228P, kappa)
heavy: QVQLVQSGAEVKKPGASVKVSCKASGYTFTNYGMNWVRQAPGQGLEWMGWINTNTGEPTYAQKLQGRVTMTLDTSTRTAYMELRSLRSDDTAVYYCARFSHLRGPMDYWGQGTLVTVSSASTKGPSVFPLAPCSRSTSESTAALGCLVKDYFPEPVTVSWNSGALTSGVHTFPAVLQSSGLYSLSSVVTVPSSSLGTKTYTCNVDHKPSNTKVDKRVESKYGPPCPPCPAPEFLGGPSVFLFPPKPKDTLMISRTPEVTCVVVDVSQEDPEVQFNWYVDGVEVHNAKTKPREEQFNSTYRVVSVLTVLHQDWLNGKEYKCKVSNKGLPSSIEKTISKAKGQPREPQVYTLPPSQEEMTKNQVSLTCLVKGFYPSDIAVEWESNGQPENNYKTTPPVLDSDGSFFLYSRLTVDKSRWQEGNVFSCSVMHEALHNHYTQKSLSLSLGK
light: B5 light
notes: as for B5
B9: hz16E5-3.3 (antibody, human IgG4 S228P, kappa)
heavy: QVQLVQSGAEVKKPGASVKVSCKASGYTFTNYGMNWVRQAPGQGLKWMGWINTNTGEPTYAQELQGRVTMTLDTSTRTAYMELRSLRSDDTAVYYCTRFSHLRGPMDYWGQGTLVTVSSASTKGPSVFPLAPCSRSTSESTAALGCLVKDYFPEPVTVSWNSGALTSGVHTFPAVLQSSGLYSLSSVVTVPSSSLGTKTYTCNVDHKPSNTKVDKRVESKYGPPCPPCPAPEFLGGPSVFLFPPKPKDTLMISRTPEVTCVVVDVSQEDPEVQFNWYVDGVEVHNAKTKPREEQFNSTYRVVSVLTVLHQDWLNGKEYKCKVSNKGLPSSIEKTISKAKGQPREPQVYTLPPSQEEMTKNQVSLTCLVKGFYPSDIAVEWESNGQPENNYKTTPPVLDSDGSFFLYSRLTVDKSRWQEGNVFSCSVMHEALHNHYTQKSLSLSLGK
light: B5 light with I2A
notes: as for B5
B10: hz16E5-1.3 (antibody, human IgG4 S228P, kappa)
heavy: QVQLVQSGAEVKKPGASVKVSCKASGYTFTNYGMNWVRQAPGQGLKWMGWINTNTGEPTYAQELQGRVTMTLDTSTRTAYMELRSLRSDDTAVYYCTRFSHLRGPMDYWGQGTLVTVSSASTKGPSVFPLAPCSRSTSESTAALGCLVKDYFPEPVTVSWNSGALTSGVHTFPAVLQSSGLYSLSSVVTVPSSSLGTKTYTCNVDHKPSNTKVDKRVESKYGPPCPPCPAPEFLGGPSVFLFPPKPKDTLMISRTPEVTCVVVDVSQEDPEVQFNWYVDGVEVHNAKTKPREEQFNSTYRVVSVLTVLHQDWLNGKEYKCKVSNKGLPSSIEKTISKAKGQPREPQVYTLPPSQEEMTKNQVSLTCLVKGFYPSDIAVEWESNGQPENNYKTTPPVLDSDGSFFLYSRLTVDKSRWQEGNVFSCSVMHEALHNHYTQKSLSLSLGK
light: B5 light
notes: as for B5
B11: hz14A9-2.3 (antibody, human IgG4 S228P, kappa, V domains shown)
VH: QVQLVQSGAEVKKPGASVKVSCKVSGFNIEDDYIEWVRQAPGQGLEWMGRIDPANDKTKYAQKFQGRVTMTGDTSTNTVYMELSSLRSEDTAVYYCARPGLRRYYSMDYWGQGTLVTVSS
VL: DIQMTQSPSSLSASVGDRVTITCKASENVVSYVSWYQQKPGKAPKLLIYGASNRYTGVPSRFIGSGSSTDFTLTISSLQPEDFATYYCGQSYSYPLTFGQGTKLEIKR
B12: hz14A9-2.4 (antibody, human IgG4 S228P, kappa, V domains shown)
VH: B11 VH with A97T
VL: B11 VL
B13: hz3F10-1.1 (antibody, human IgG4 S228P, kappa, V domains shown)
VH: QVQLVQSGAEVKKPGSSVKVSCKASGYTFSRYWIEWVRQAPGQGLEWMGEFIPGSDTTNYAQKFQGRVTITADISTSTAYMELSSLRSEDTAVYYCARGGLRRMDYWGQGTLVTVSS
VL: DIQMTQSPSSLSASVGDRVTITCRASSSVSSTYLHWYQQKPGKAPKLLIYTTSTLASGVPSRFSGSGSGTDFTLTISSLQPEDFATYYCQQFSDSTWTFGQGTKLEIKR
notes: Humanized 3F10, full-length heavy and light chains, made in CHO cells
B14: hz3F10-6.1 (antibody, human IgG4 S228P, kappa, V domains shown)
VH: B13 VH
VL: B13 VL with L48W, D71S, F72Y, D94E
notes: as for B13
B15: hz3F10-6.2 (antibody, human IgG4 S228P, kappa, V domains shown)
VH: B13 VH with D73E, S77N
VL: B13 VL with L48W, D71S, F72Y, D94E
notes: as for B13
B16: hz3F10-2.1 (antibody, human IgG4 S228P, kappa, V domains shown)
VH: B13 VH
VL: B13 VL with D94E
notes: as for B13
B17: hz3F10-1.2 (antibody, human IgG4 S228P, kappa, V domains shown)
VH: B13 VH with D73E, S77N
VL: B13 VL
notes: as for B13
B18: hz3F10-3.2 (antibody, human IgG4 S228P, kappa, V domains shown)
VH: B13 VH with D73E, S77N
VL: B13 VL with D71S, F72Y
notes: as for B13
B19: hz3F10-5.1 (antibody, human IgG4 S228P, kappa, V domains shown)
VH: B13 VH
VL: B13 VL with L48W, D71S, F72Y
notes: as for B13
B20: hz3F10-4.2 (antibody, human IgG4 S228P, kappa, V domains shown)
VH: B13 VH with D73E, S77N
VL: B13 VL with D71S, F72Y, D94E
notes: as for B13
B21: hz3F10-5.2 (antibody, human IgG4 S228P, kappa, V domains shown)
VH: B13 VH with D73E, S77N
VL: B13 VL with L48W, D71S, F72Y
notes: as for B13
B22: hz3F10-2.2 (antibody, human IgG4 S228P, kappa, V domains shown)
VH: B13 VH with D73E, S77N
VL: B13 VL with D94E
notes: as for B13
B23: hz3F10-4.1 (antibody, human IgG4 S228P, kappa, V domains shown)
VH: B13 VH
VL: B13 VL with D71S, F72Y, D94E
notes: as for B13
B24: Xi3F10 (antibody, human IgG4 S228P, kappa, V domains shown)
VH: EVQLQQSVAELMKPGASVKIYCKATGYTFSRYWIEWVKQRPGHGLEWIGEFIPGSDTTNFNEKFKGKATFTAEISSNTAYMQLSSLTSEDSAVYFCARGGLRRMDYWGQGTSVTVSS
VL: DIVMTQTPAIMSASPGEKVTMTCRASSSVSSTYLHWYQQKSGASPKLWIYTTSTLASGVPARFSGSGSGTSYSLTISSVEAEDAATYYCQQFSDSTWTFGGGTKLEIKR
notes: Chimeric: mouse VH on human IgG4 (S228P, EU) constant region, mouse VL on human kappa constant region; made in CHO cells; also called chimeric version of 3F10
B25: hz3F10-3.1 (antibody, human IgG4 S228P, kappa, V domains shown)
VH: B13 VH
VL: B13 VL with D71S, F72Y
notes: as for B13

Target: T1, cynomolgus/rhesus macaque CD47 protein, His Tag (ACRObiosystems, Cat. No. CD7-C52H1) (cynomolgus monkey, UniProt A0A2K5X523 19-139)
T1 construct: Bought protein; also called Cynomolgus monkey CD47 protein; not shown: His tag
Experiment: Biacore SPR, antibody captured on CM5 chip, CD47-His protein, 25 C
Experimental: (§1) The equilibrium dissociation constants KD (in unit M) were obtained by measuring the binding kinetics of the human CD47 protein (human CD47 protein, His Tag; ACRObiosystems, Cat. No. CD7-H5227) and cynomolgus monkey CD47 protein (cynomolgus/rhesus macaque CD47 protein, His Tag; ACRObiosystems, Cat. No. CD7-C52H1) to anti-CD47 antibodies (chimeric or humanized) using Biacore. The Biacore analysis was performed at 25° C. and data were recorded at a rate of 1 Hz.
(§2) At the beginning of each cycle, the diluted test antibody (1.5 μg/mL) was injected onto the experimental flowcell and maintained for 1 min to be captured.

Binder	Kd
B1	1.58 nM
B2	1.25 nM
B3	2.92 nM
B4	1.2 nM
B5	2.26 nM
B6	3.28 nM
B7	3.1 nM
B8	4.77 nM
B9	1.87 nM
B10	2.73 nM
B11	3.07 nM
B12	2 nM
B13	1.31 nM
B14	2.47 nM
B15	1.15 nM
B16	1.17 nM
B17	1.33 nM
B18	1.47 nM
B19	1.3 nM
B20	1.86 nM
B21	1.4 nM
B22	1.14 nM
B23	1.62 nM
B24	1.04 nM

Target: T2, human CD47 protein, His Tag (ACRObiosystems, Cat. No. CD7-H5227) (human, UniProt Q08722 19-139)
T2 construct: Bought protein; also called hCD47-His Tag protein; not shown: His tag
T2 sequence (Q08722 19-139 limits assumed): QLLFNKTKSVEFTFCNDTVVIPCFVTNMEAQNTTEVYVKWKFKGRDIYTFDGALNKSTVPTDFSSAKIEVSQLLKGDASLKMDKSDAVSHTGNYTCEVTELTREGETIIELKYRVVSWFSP
Experiment: as above
Experimental: as §1, §2

Binder	Kd
B1	2.35 nM
B2	0.35 nM
B3	9.06 nM
B4	7.48 nM
B5	9.31 nM
B6	6.28 nM
B7	17.1 nM
B8	18.9 nM
B9	7.13 nM
B10	15.3 nM
B11	0.204 nM
B12	8.55 nM
B25	1.53 nM
B13	0.946 nM
B14	0.592 nM
B15	0.765 nM
B16	0.836 nM
B17	0.904 nM
B18	1.15 nM
B19	0.96 nM
B20	1.34 nM
B21	0.896 nM
B22	0.779 nM
B23	1.42 nM
B24	0.767 nM
